Laboratory results: publication PMC3871595, “Structure Based Identification and Characterization of Flavonoids That Disrupt Human Papillomavirus-16 E6 Function” (PLoS ONE, 2013)

Biological target: T1, GST-HPV-16 E6 (human papillomavirus type 16, UniProt P03126 1-158)
T1 construct: early protein 6 (E6) of human papillomavirus type 16; also called GST-E6; GST-16 E6; source: E. coli BL21, purified on glutathione Sepharose beads and kept on the beads
Experiment: filter plate bead binding assay (BAP chemiluminescence); dissociation rate experiment: GST-E6 and E6AP-BAP bound to equilibrium, unbound E6AP-BAP washed away, decrease in BAP signal at each time point
Conditions: both partners purified

T1 sequence (P03126 whole entry): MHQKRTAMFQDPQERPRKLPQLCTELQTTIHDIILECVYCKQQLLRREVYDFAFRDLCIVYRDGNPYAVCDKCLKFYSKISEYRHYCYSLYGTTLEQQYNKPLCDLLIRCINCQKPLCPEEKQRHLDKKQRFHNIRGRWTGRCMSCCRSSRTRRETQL

B1: E6AP-BAP fusion protein (E6AP residues 371-440 fused to bacterial alkaline phosphatase) (domain or fragment, UniProt Q05086 371-440, looked up)
chain: ASKCLKMVYYANVVGGEVDTNHNEEDDEEPIPESSELTLQELLGEERRNKKGPRVDPLETELGVKTLDCR
notes: also called FLAG-tagged E6AP-BAP; source: E. coli BL21, purified (anti-FLAG resin, glycine pH 2.5 elution)
- half-life of ligand dissociation (t1/2): 3.6 min
